Target: BANAL-20-52 S ectodomain with stabilizing mutations
Experiment: AUC

peptidase domain (PD) of hACE2, sequence (Q9BYF1 19-615): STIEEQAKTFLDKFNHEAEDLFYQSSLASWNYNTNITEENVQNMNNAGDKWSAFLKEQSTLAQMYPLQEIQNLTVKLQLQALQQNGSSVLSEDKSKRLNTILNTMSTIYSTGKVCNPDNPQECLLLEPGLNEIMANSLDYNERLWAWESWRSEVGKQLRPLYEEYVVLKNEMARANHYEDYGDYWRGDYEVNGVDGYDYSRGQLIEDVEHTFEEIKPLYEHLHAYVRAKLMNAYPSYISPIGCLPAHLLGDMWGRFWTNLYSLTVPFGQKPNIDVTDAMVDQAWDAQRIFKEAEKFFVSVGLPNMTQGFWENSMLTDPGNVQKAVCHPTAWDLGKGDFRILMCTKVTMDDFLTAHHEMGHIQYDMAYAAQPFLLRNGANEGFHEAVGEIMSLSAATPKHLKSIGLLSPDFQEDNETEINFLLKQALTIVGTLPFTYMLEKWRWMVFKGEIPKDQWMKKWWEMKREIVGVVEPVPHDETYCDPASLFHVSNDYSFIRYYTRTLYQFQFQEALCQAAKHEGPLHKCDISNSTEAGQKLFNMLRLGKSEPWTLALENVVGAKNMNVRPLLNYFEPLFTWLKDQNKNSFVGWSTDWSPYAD

**Q.** With “peptidase domain (PD) of hACE2 (from UniProt Q9BYF1 19-615) (domain or fragment)” as the substance, how does the stoichiometry N (hACE2 molecules per S trimer) read?
**A.** Its stoichiometry N (hACE2 molecules per S trimer) is 2.

Reference: paper PMC12363175
